Laboratory results published in patent US20220281976A1 (Alector, published 2022).

T1: mouse CD33 Fc fusion protein (mouse, UniProt Q63994 18-240, limits assumed)
T1 construct: also called mCD33-Fc
T1 sequence: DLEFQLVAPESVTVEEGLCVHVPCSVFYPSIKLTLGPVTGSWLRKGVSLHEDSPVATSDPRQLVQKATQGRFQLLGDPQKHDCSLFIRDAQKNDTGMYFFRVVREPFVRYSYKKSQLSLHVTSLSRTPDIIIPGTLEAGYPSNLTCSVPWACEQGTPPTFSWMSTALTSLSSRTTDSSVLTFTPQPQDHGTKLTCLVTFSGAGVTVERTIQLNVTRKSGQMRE


Legend:
human CD33 [1] = target: T2, human CD33 (human, UniProt P20138 18-364); test: cell-based or functional assay
[2] = target: T1, mouse CD33 Fc fusion protein; test: ForteBio BLI or MSD-SET
[3] = target: T3, human CD33 Fc fusion protein (human, UniProt P20138 18-259); test: ForteBio BLI or MSD-SET, IgG, avid;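 further: Anti-CD33 IgG affinity by BLI, IgG captured on AHQ sensors with antigen in solution and a one-to-one kinetic fit, or by MSD solution equilibrium titration with quadratic fit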
T3 construct: also called hCD33-Fc; human CD33/Fc chimera (R&D Systems)

human CD33 [4] = target: T2, human CD33; test: flow cytometry, human primary T cells;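 further: binding of anti-CD33 antibodies at 10 ug/ml to human primary T cells, 1 h on ice, detected with PE-labelled secondary antibody, read as flow cytometry MFI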
Experimental: Initial characterization of CD33 antibodies involved determining their ability to bind CD33 expressed on a CHO cell line, on human primary monocytes, human primary macrophages, human primary dendritic cells, and on human primary T cells. Cells were harvested, plated at 10⁶/ml in a 96 well plate, and incubated in 100 ul PBS containing 2% FBS, 2 mM EDTA and 10 ug/ml Mab and Fc blocking reagent for 1 hour in ice. Cells were washed twice and incubated in 100 ul PBS containing 2% FBS, 2 mM EDTA and 5 ug/ml PE-conjugated secondary antibody for 30 minutes on ice. Cells were washed twice in cold PBS and analyze by flow cytometry on a BD FACS Canto. Data analysis and calculation of MFI values was performed with FlowJo (TreeStar) software version 10.0.7.

human CD33 [5] = target: T2, human CD33; test: flow cytometry, human primary monocytes; set-up: reference not given here;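 further: binding of anti-CD33 antibodies at 10 ug/ml to human primary monocytes, 1 h on ice, detected by PE-labelled secondary antibody, flow cytometry readout as mean fluorescence intensity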
human CD33 [6] = target: T2, human CD33; test: flow cytometry, human primary macrophages;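 further: binding of CD33 antibodies at 10 µg/ml to human primary macrophages, 1 h on ice, detected with PE-labelled secondary antibody by flow cytometry, reported as MFI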
human CD33 [7] = target: T2, human CD33; test: flow cytometry, human primary dendritic cells;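 further: binding of anti-CD33 antibodies (10 ug/ml, 1 h on ice) to human primary dendritic cells, detected with a PE-labelled secondary antibody, reported as flow cytometry MFI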
[8] = target: T4, human monomeric His tagged CD33 protein (human, UniProt P20138 18-259); test: ForteBio BLI or MSD-SET, IgG, monomeric antigen;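 further: BLI: antibodies captured on AHQ sensors, 100 nM antigen association 5 min, dissociation 5 min, 1:1 fit. MSD-SET: antigen fixed at 50 pM, antibody titrated, quadratic fit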
T4 construct: also called hCD33-His
Experimental: The binding affinity of each anti-CD33 antibody was determined by measuring their KD by ForteBio or MSD-SET. […] Briefly, ForteBio affinity measurements were performed by loading IgGs on-line onto AHQ sensors. Sensors were equilibrated off-line in assay buffer for 30 min and then monitored on-line for 60 seconds for baseline establishment. Sensors with loaded IgGs were exposed to 100 nM antigen for 5 minutes, then transferred to assay buffer for 5 min for off-rate measurement. Kinetics were analyzed using the 1:1 binding model.
Solution equilibrium titrations (SET) were performed in PBS+0.1% IgG-Free BSA (PBSF) with antigen held constant at 50 pM and incubated with 3-to 5-fold serial dilutions of antibody starting at 10 nM. Antibodies (20 nM in PBS) were coated onto standard bind MSD-ECL plates overnight at 4° C. or at room temperature for 30 min. Plates were then blocked for 30 min with shaking at 700 rpm, followed by three washes with wash buffer (PBSF+0.05% Tween 20). SET samples were applied and incubated on the plates for 150s with shaking at 700 rpm followed by one wash. Antigen captured on a plate was detected with 250 ng/mL sulfotag-labeled streptavidin in PBSF by incubation on the plate for 3 min. The plates were washed three times with wash buffer and then read on the MSD Sector Imager 2400 instrument using 1× Read Buffer T with surfactant. The percent free antigen was plotted as a function of titrated antibody in Prism and fit to a quadratic equation to extract the KD. To improve throughput, liquid handling robots were used throughout MSD-SET experiments, including SET sample preparation.

[9] = target: T3, human CD33 Fc fusion protein; test: RBC adhesion to plate-bound CD33-Fc; antibody 0.5 ug/ml;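 further: Plate-coated CD33-Fc preincubated 1 h with antibody, then red blood cells added for 1 h at room temperature, adherent cells lysed and quantified via peroxidase activity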
[10] = target: T3, human CD33 Fc fusion protein; test: RBC adhesion to plate-bound CD33-Fc; antibody 1.0 ug/ml;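 further: red blood cells adhering to plate-coated CD33-Fc after 1 h antibody pretreatment, then 1 h at room temperature, bound cells read as peroxidase activity after lysis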
Experimental: Briefly, 5 ug/ml CD33-Fc was coated overnight at RT in 96 well Immunolon plates, then washed with PBS, blocked for one hour with binding buffer (PBS containing %0.25 BSA 1 mM CaCl₂). CD33 antibodies (0.5 ug/ml or 1.0 ug/ml) or Fabs (25 ug/ml) were bound for one hour at RT with gentle rocking. After removal of unbound antibody, red blood cells were added to each well at a concentration of 3.0×10⁶ cells per ml and incubated at RT for one hour. Unbound RBCs were then carefully washed off 3× with PBS, and water was added to each well for hypotonic lysis of bound RBCs. The plate was transferred to −80° C. for 10 minutes, followed by 37° C. for 15 minutes. Bound RBCs were detected by peroxidase activity, followed by 2N sulfuric acid to stop the reaction.

[11] = target: T1, mouse CD33 Fc fusion protein; test: ForteBio BLI or MSD-SET, IgG, avid;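 further: Anti-CD33 IgG affinity by BLI, IgG captured on AHQ sensors with antigen in solution and a one-to-one kinetic fit, or by MSD solution equilibrium titration with quadratic fit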
[12] = target: T3, human CD33 Fc fusion protein; test: ForteBio BLI or MSD-SET
[13] = target: T4, human monomeric His tagged CD33 protein; test: ForteBio BLI or MSD-SET

T3 sequence (P20138 18-259 limits assumed): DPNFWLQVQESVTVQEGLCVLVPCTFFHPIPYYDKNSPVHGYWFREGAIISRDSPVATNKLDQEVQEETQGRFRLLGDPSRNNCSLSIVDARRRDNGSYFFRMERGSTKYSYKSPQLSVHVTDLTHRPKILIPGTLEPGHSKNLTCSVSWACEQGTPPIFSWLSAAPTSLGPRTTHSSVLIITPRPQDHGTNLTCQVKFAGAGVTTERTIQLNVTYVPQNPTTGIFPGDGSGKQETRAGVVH
T4 sequence (P20138 18-259 limits assumed): as above
T2 sequence (P20138 18-364): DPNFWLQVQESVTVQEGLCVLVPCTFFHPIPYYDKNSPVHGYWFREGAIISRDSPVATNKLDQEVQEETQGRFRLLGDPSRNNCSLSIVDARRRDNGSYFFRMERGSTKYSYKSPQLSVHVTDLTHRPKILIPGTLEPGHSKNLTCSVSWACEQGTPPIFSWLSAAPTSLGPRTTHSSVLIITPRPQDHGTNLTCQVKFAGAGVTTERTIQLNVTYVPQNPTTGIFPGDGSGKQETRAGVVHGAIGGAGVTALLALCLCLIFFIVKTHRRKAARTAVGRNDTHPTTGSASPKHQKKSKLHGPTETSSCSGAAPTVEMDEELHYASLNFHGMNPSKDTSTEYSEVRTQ

Row | Binder | Percent CD33 Surface Expression, DC % CD33 (human CD33 [1]) | Percent CD33 Surface Expression, Macrophage % CD33 (human CD33 [1]) | Percent CD33 Surface Expression, Monocyte % CD33 (human CD33 [1]) | binding result [2] | Kd [3] | T cell MFI (human CD33 [4]) | Monocyte MFI (human CD33 [5]) | Macrophage MFI (human CD33 [6]) | DC MFI (human CD33 [7]) | Kd [8] | Percent RBC Binding to CD33 [9] | Percent RBC Binding to CD33 [10] | Kd [11] | binding result [12] | binding result [13]
1 | C-30 (antibody, V domains shown) VH: QVQLVQSGAEVKKPGASVKVSCKASGYTFTSYYMHWVRQAPGQGLEWMGVINPSGGSTSYAQKFQGRVTMTRDTSTSTVYMELSSLRSEDTAVYYCAREEAVAADLGVDVWGQGTTVTVSS VL: not shown | 21% | 41.3% | 43% | no binding (tested: 100 nM) | 0.985 nM | 240 | 169 | 1060 | 1660 | 4.12 nM | 14.2% | 8.9% |  |  | 
2 | C-32 (antibody, V domains shown, human IgG1) VH: EVQLVESGGGLVQPGGSLRLSCAASGFTFSSYWMSWVRQAPGKGLEWVANIKSDGSEKYYVDSVKGRFTISRDNAKNSLYLQMNSLRAEDTAVYYCARGPSEAAAAKDFDLWGRGTLVTVSS VL: not shown | 17.3% | 43.2% | 33.5% | no binding (tested: 100 nM) | 1.63 nM | 248 | 133 | 855 | 1460 | 7.82 nM | 12.5% | 7.86% |  |  | 
3 | C-64 (antibody, V domains shown, human IgG1) VH: QVQLVQSGAEVKKPGSSVKVSCKASGGTFSSLAISWVRQAPGQGLEWMGGIIPIFGTANYAQKFQGRVTITADESTSTAYMELSSLRSEDTAVYYCARGTFYSDELFDYWGQGTLVTVSS VL: DIQMTQSPSSVSASVGDRVTITCRASQGISSWLAWYQQKPGKAPKLLIYAASSLQSGVPSRFSGSGSGTDFTLTISSLQPEDFATYYCQQENSYPLTFGGGTKVEIK | 31% | 40.5% | 29.5% |  |  | 188 | 188 | 1040 | 1300 | 7.1 nM | 93.5% | 90.4% | 25.8 nM |  | 
4 | C-28 (antibody, V domains shown, human IgG1) VH: EVQLVESGGGLVQPGGSLRLSCAASGFTFSSYWMSWVRQAPGKGLEWVANINQDGSEKYYVDSVKGRFTISRDNAKNSLYLQMNSLRAEDTAVYYCAREGRRTMNAFDIWGQGTMVTVSS VL: DIQMTQSPSSLSASVGDRVTITCRASQSISSYLNWYQQKPGKAPKLLIYGASSLQSGVPSRFSGSGSGTDFTLTISSLQPEDFATYYCQQGYDVPITFGGGTKVEIK | 14.8% | 40.2% | 29.2% | no binding (tested: 100 nM) | 1.02 nM | 402 | 143 | 811 | 1780 | 4 nM | 14% | 9.65% |  |  | 
5 | C-34 (antibody, V domains shown, human IgG1) VH: EVQLVESGGGLVQPGGSLRLSCAASGFTFSSYWMSWVRQAPGKGLEWVANINQDGSEKYYVDSVKGRFTISRDNAKNSLYLQMNSLRAEDTAVYYCARDHGATGPDFDLWGRGTLVTVSS VL: DIQMTQSPSSLSASVGDRVTITCRASQSISSYLNWYQQKPGKAPKLLIYGASSLQSGVPSRFSGSGSGTDFTLTISSLQPEDFATYYCQQQYLTPLTFGGGTKVEIK | 20.1% | 38% | 42.5% | no binding (tested: 100 nM) | 1.21 nM | 216 | 157 | 862 | 1440 | 4.44 nM | 14.4% | 9.86% |  |  | 
6 | C-25 (antibody, V domains shown, human IgG1) VH: EVQLVESGGGLVQPGGSLRLSCAASGFTFSSYWMSWVRQAPGKGLEWVANIKSDGSEKYYVDSVKGRFTISRDNAKNSLYLQMNSLRAEDTAVYYCAREGFRDGINWFDPWGQGTLVTVSS VL: DIQMTQSPSSLSASVGDRVTITCRASQSISRYLNWYQQKPGKAPKLLIYAASSLQSGVPSRFSGSGSGTDFTLTISSLQPEDFATYYCQQQFLTPITFGGGTKVEIK | 22.3% | 41.9% | 35.4% | no binding (tested: 100 nM) | 1.85 nM | 187 | 139 | 877 | 1790 | 8.78 nM | 11.3% | 10.1% |  |  | 
7 | C-33 (antibody, V domains shown, human IgG1) VH: EVQLVESGGGLVQPGGSLRLSCAASGFTFSSYWMSWVRQAPGKGLEWVANIKSDGSEKYYVDSVKGRFTISRDNAKNSLYLQMNSLRAEDTAVYYCAREGRPRLGYAAFDIWGQGTMVTVSS VL: DIQMTQSPSSLSASVGDRVTITCRASQSISSYLNWYQQKPGKAPKLLIYAASSLQSGVPSRFSGSGSGTDFTLTISSLQPEDFATYYCQQQYDLPITFGGGTKVEIK | 18.4% | 43.1% | 51.4% | no binding (tested: 100 nM) | 0.954 nM | 228 | 133 | 753 | 1590 | 3.91 nM | 9.36% | 6.32% |  |  | 
8 | C-23 (antibody, V domains shown, human IgG1) VH: QVQLQESGPGLVKPSETLSLTCAVSGYSISSGYYWGWIRQPPGKGLEWIGTIYHSGSTYYNPSLKSRVTISVDTSKNQFSLKLSSVTAADTAVYYCAREVGVVGALPYFDYWGQGTLVTVSS VL: DIQMTQSPSSLSASVGDRVTITCRASQSISSYLNWYQQKPGKAPKLLIYGASSLQSGVPSRFSGSGSGTDFTLTISSLQPEDFATYYCQQASSSPPTFGGGTKVEIK | 69.5% |  | 71.3% | no binding (tested: 100 nM) | 3.39 nM | 242 | 128 | 771 | 1050 | 21.1 nM | 13.8% | 8.42% |  |  | 
9 | C-26 (antibody, V domains shown, human IgG1) VH: QLQLQESGPGLVKPSETLSLTCTVSGGSISSNSYYWGWIRQPPGKGLEWIGSIYYSGSTYYNPSLKSRVTISVDTSKNQFSLKLSSVTAADTAVYYCARSPVYYDSSGYFQYYGMDVWGQGTTVTVSS VL: EIVLTQSPATLSLSPGERATLSCRASQSVSSYLAWYQQKPGQAPRLLIYDASKRATGIPARFSGSGSGTDFTLTISSLEPEDFAVYYCQQSIVWPPFTFGGGTKVEIK | 18.8% | 45.1% | 33% | no binding (tested: 100 nM) | 0.388 nM | 198 | 188 | 926 | 1960 | 1.57 nM | 19.2% | 15.2% |  |  | 
10 | C-22 (antibody, V domains shown, human IgG1) VH: QVQLQESGPGLVKPSETLSLTCAVSGYSISSGYYWGWIRQPPGKGLEWIGSIYHSGNTYYNPSLKSRVTISVDTSKNQFSLKLSSVTAADTAVYYCARDGRYSSSGELYYGMDVWGQGTTVTVSS VL: not shown | 17% | 44% | 40.7% | no binding (tested: 100 nM) | 0.445 nM | 207 | 188 | 912 | 1650 | 1.97 nM | 11.5% | 9.95% |  |  | 
11 | C-47 (antibody, V domains shown, human IgG1) VH: QVQLVESGGGVVQPGRSLRLSCAASGFTFSSYGMHWVRQAPGKGLEWVAVISYDGSNKYYADSVKGRFTISRDNSKNTLYLQMNSLRAEDTAVYYCARGPYYSYTDTAWFDPWGQGTLVTVSS VL: not shown |  |  |  |  |  |  |  |  |  |  | 112% | 142% | 1.09 nM | no binding (tested: 100 nM) | no binding (tested: 100 nM)
